Each block holds one binder with its values, some of them ahead of it. Numbered stars: 1 amine (or outer) side, 2 acyl side, 3 side chain; on linkers, the order of the positions; unused ones are H or OH. Bridge positions count the residues as written; N and C are the ends. Square brackets hold non-standard residues; d marks the D form. Side chains are listed from the residue outwards. Ends that are not written are not given here. * marks the point of attachment. C18 diacid = O=C(O)CCCCCCCCCCCCCCCCC(=O)*; γGlu = O=C(O)[C@H](CCC(=O)[*:2])N[*:1]; Aib = CC(C)(N)C(=O)O
Tests used:
[1] = target: T1, human calcitonin receptor (human, UniProt P30988 25-474); experiment: cell-based or functional assay
T1 sequence (looked up): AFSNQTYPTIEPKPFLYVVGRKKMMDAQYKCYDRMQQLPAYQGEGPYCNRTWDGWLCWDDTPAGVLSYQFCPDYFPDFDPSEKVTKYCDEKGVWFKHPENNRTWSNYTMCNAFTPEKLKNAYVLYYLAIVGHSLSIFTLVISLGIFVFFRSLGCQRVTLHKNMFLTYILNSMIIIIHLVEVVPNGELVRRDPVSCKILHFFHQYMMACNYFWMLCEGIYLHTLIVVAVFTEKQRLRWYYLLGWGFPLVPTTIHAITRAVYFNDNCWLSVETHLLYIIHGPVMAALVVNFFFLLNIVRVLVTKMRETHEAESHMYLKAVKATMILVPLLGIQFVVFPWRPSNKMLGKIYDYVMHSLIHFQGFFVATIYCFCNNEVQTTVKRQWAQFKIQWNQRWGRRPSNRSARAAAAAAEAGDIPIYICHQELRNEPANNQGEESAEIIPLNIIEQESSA

[2] = target: T2, human amylin receptor (calcitonin receptor co-expressed with receptor activity modifying protein, RAMP3) (human, UniProt P30988 25-474; O60896 24-148); experiment: cell-based or functional assay
T2 sequence (looked up) 1: T1 sequence (looked up)
T2 sequence (looked up) 2: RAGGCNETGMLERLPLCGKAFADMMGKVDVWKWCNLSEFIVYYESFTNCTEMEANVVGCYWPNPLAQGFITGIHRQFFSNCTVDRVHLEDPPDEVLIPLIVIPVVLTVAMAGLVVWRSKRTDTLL

EC50 (cAMP production) [1]: 0.401 nM
EC50 (cAMP production) [2]: 0.118 nM
Ratio (EC50 hCTR / EC50 hAMYR3) [2]: 3
B1: Peptide 84 (SEQ ID NO: 84) (peptide)
peptide: K([γGlu-C18 diacid])KCNTATCATQRLANFLVHSS[Aib]NFGPILPPTNVG[Aib]NTY-NH2
modifications: disulfide 3-8; N-terminus assumed
SMILES: CC[C@H](C)[C@H](NC(=O)[C@@H]1CCCN1C(=O)CNC(=O)[C@H](Cc1ccccc1)NC(=O)[C@H](CC(N)=O)NC(=O)C(C)(C)NC(=O)[C@H](CO)NC(=O)[C@H](CO)NC(=O)[C@H](Cc1c[nH]cn1)NC(=O)[C@@H](NC(=O)[C@H](CC(C)C)NC(=O)[C@H](Cc1ccccc1)NC(=O)[C@H](CC(N)=O)NC(=O)[C@H](C)NC(=O)[C@H](CC(C)C)NC(=O)[C@H](CCCNC(=N)N)NC(=O)[C@H](CCC(N)=O)NC(=O)[C@@H](NC(=O)[C@H](C)NC(=O)[C@@H]1CSSC[C@H](NC(=O)[C@H](CCCCN)NC(=O)[C@@H](N)CCCCNC(=O)CC[C@H](NC(=O)CCCCCCCCCCCCCCCCC(=O)O)C(=O)O)C(=O)N[C@@H](CC(N)=O)C(=O)N[C@@H]([C@@H](C)O)C(=O)N[C@@H](C)C(=O)N[C@@H]([C@@H](C)O)C(=O)N1)[C@@H](C)O)C(C)C)C(=O)N[C@@H](CC(C)C)C(=O)N1CCC[C@H]1C(=O)N1CCC[C@H]1C(=O)N[C@H](C(=O)N[C@@H](CC(N)=O)C(=O)N[C@H](C(=O)NCC(=O)NC(C)(C)C(=O)N[C@@H](CC(N)=O)C(=O)N[C@H](C(=O)N[C@@H](Cc1ccc(O)cc1)C(N)=O)[C@@H](C)O)C(C)C)[C@@H](C)O

EC50 (cAMP production) [1]: 2.76 nM
EC50 (cAMP production) [2]: 0.404 nM
Ratio (EC50 hCTR / EC50 hAMYR3) [2]: 7
B2: Peptide 81 (SEQ ID NO: 81) (peptide)
peptide: K([γGlu-C18 diacid])KCNTATCATQRLANFLVHSS[Aib]NFGPILPPTNV[Aib]SNTY-NH2
modifications: disulfide 3-8; N-terminus assumed
SMILES: CC[C@H](C)[C@H](NC(=O)[C@@H]1CCCN1C(=O)CNC(=O)[C@H](Cc1ccccc1)NC(=O)[C@H](CC(N)=O)NC(=O)C(C)(C)NC(=O)[C@H](CO)NC(=O)[C@H](CO)NC(=O)[C@H](Cc1c[nH]cn1)NC(=O)[C@@H](NC(=O)[C@H](CC(C)C)NC(=O)[C@H](Cc1ccccc1)NC(=O)[C@H](CC(N)=O)NC(=O)[C@H](C)NC(=O)[C@H](CC(C)C)NC(=O)[C@H](CCCNC(=N)N)NC(=O)[C@H](CCC(N)=O)NC(=O)[C@@H](NC(=O)[C@H](C)NC(=O)[C@@H]1CSSC[C@H](NC(=O)[C@H](CCCCN)NC(=O)[C@@H](N)CCCCNC(=O)CC[C@H](NC(=O)CCCCCCCCCCCCCCCCC(=O)O)C(=O)O)C(=O)N[C@@H](CC(N)=O)C(=O)N[C@@H]([C@@H](C)O)C(=O)N[C@@H](C)C(=O)N[C@@H]([C@@H](C)O)C(=O)N1)[C@@H](C)O)C(C)C)C(=O)N[C@@H](CC(C)C)C(=O)N1CCC[C@H]1C(=O)N1CCC[C@H]1C(=O)N[C@H](C(=O)N[C@@H](CC(N)=O)C(=O)N[C@H](C(=O)NC(C)(C)C(=O)N[C@@H](CO)C(=O)N[C@@H](CC(N)=O)C(=O)N[C@H](C(=O)N[C@@H](Cc1ccc(O)cc1)C(N)=O)[C@@H](C)O)C(C)C)[C@@H](C)O

EC50 (cAMP production) [1]: 6.34 nM
EC50 (cAMP production) [2]: 0.599 nM
Ratio (EC50 hCTR / EC50 hAMYR3) [2]: 11
B3: Peptide 83 (SEQ ID NO: 83) (peptide)
peptide: K([γGlu-C18 diacid])KCNTATCATQRLANFLVHSS[Aib]NFGPILPPTNVGSN[Aib]Y-NH2
modifications: disulfide 3-8; N-terminus assumed
SMILES: CC[C@H](C)[C@H](NC(=O)[C@@H]1CCCN1C(=O)CNC(=O)[C@H](Cc1ccccc1)NC(=O)[C@H](CC(N)=O)NC(=O)C(C)(C)NC(=O)[C@H](CO)NC(=O)[C@H](CO)NC(=O)[C@H](Cc1c[nH]cn1)NC(=O)[C@@H](NC(=O)[C@H](CC(C)C)NC(=O)[C@H](Cc1ccccc1)NC(=O)[C@H](CC(N)=O)NC(=O)[C@H](C)NC(=O)[C@H](CC(C)C)NC(=O)[C@H](CCCNC(=N)N)NC(=O)[C@H](CCC(N)=O)NC(=O)[C@@H](NC(=O)[C@H](C)NC(=O)[C@@H]1CSSC[C@H](NC(=O)[C@H](CCCCN)NC(=O)[C@@H](N)CCCCNC(=O)CC[C@H](NC(=O)CCCCCCCCCCCCCCCCC(=O)O)C(=O)O)C(=O)N[C@@H](CC(N)=O)C(=O)N[C@@H]([C@@H](C)O)C(=O)N[C@@H](C)C(=O)N[C@@H]([C@@H](C)O)C(=O)N1)[C@@H](C)O)C(C)C)C(=O)N[C@@H](CC(C)C)C(=O)N1CCC[C@H]1C(=O)N1CCC[C@H]1C(=O)N[C@H](C(=O)N[C@@H](CC(N)=O)C(=O)N[C@H](C(=O)NCC(=O)N[C@@H](CO)C(=O)N[C@@H](CC(N)=O)C(=O)NC(C)(C)C(=O)N[C@@H](Cc1ccc(O)cc1)C(N)=O)C(C)C)[C@@H](C)O

EC50 (cAMP production) [1]: 4.28 nM
EC50 (cAMP production) [2]: 0.514 nM
Ratio (EC50 hCTR / EC50 hAMYR3) [2]: 8
B4: Peptide 82 (SEQ ID NO: 82) (peptide)
peptide: K([γGlu-C18 diacid])KCNTATCATQRLANFLVHSS[Aib]NFGPILPPTNVGS[Aib]TY-NH2
modifications: disulfide 3-8; N-terminus assumed
SMILES: CC[C@H](C)[C@H](NC(=O)[C@@H]1CCCN1C(=O)CNC(=O)[C@H](Cc1ccccc1)NC(=O)[C@H](CC(N)=O)NC(=O)C(C)(C)NC(=O)[C@H](CO)NC(=O)[C@H](CO)NC(=O)[C@H](Cc1c[nH]cn1)NC(=O)[C@@H](NC(=O)[C@H](CC(C)C)NC(=O)[C@H](Cc1ccccc1)NC(=O)[C@H](CC(N)=O)NC(=O)[C@H](C)NC(=O)[C@H](CC(C)C)NC(=O)[C@H](CCCNC(=N)N)NC(=O)[C@H](CCC(N)=O)NC(=O)[C@@H](NC(=O)[C@H](C)NC(=O)[C@@H]1CSSC[C@H](NC(=O)[C@H](CCCCN)NC(=O)[C@@H](N)CCCCNC(=O)CC[C@H](NC(=O)CCCCCCCCCCCCCCCCC(=O)O)C(=O)O)C(=O)N[C@@H](CC(N)=O)C(=O)N[C@@H]([C@@H](C)O)C(=O)N[C@@H](C)C(=O)N[C@@H]([C@@H](C)O)C(=O)N1)[C@@H](C)O)C(C)C)C(=O)N[C@@H](CC(C)C)C(=O)N1CCC[C@H]1C(=O)N1CCC[C@H]1C(=O)N[C@H](C(=O)N[C@@H](CC(N)=O)C(=O)N[C@H](C(=O)NCC(=O)N[C@@H](CO)C(=O)NC(C)(C)C(=O)N[C@H](C(=O)N[C@@H](Cc1ccc(O)cc1)C(N)=O)[C@@H](C)O)C(C)C)[C@@H](C)O

From patent publication US20220204580A1 (AstraZeneca / MedImmune, published 2022)
